± gives the standard deviation of the averaged measurements.
tested on: Saccharomyces cerevisiae; experiment: protein stability index of tFT-peptide fusion (C-terminal peptide) (PSI (0-1 scale)); higher = more stable (slower turnover); conditions: genetic background: wild type; temperature: 30 C
Experimental: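 Multiplexed protein stability (MPS) profiling in S. cerevisiae. Random 12-aa peptides (tFT-X12 library) are fused to the C-terminus of a sfGFP-mCherry tandem fluorescent timer, after mCherry and a GGGS linker. Cells are FACS-sorted into 8 mCherry/sfGFP bins and deep-sequenced. The protein stability index (PSI) is the read-weighted bin average, scaled from 0 (unstable) to 1 (stable). Only peptides with >10 reads are reported; cells were grown at 30 °C in SC-His with glucose.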
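Note: PSI is a weighted mean of sequencing reads over stability bins, variants kept only with over 10 reads, mCherry proximal and sfGFP distal, peptide attached via GGGS linker.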

Row | Sequence | protein stability index
1 | GHIQDSLSPDPH | 0.613 ± 0.013
2 | GHSLDPSVVSPD | 0.674 ± 0.068
3 | GHVLVRHNVLAV | 0.58 ± 0.026
4 | GHYPCLPFLFPL | 0.707 ± 0.087
5 | GIDVGCEWYQGG | 0.698 ± 0.037
6 | GIEKEADRVRKN | 0.659 ± 0.07
7 | GIGGYACHFYVW | 0.673 ± 0.012
8 | GIGSSKESGGLW | 0.737 ± 0.05
9 | GIGVGGIHGGIL | 0.7547 ± 0.0044
10 | GIRAVRYFNSCC | 0.598 ± 0.011
11 | GIRFGLVCYPNF | 0.6537 ± 0.0025
12 | GIRVEWVGRNRC | 0.676 ± 0.023
13 | GISFFPVGGPLI | 0.735 ± 0.062
14 | GISPDGSSIMAA | 0.689 ± 0.02
15 | GITCAEGAAMKR | 0.676 ± 0.022
16 | GIVGFSHGIISL | 0.703 ± 0.032
17 | GIYARPRPTQCP | 0.6718 ± 0.0037
18 | GIYLEESPMRKF | 0.708 ± 0.014
19 | GKERIYVYGWSK | 0.686 ± 0.016
20 | GKEWRGSGGMRR | 0.646 ± 0.014
21 | GKGKETKELIGK | 0.711 ± 0.023
22 | GKLGSSPQLRYY | 0.704 ± 0.046
23 | GKLRTVVCMCYI | 0.643 ± 0.1
24 | GKNKRERNRSSG | 0.771 ± 0.14
25 | GKRGGTGAGEKR | 0.66 ± 0.071

Row | Sequence | protein stability index
26 | GKRVNLNITSHS | 0.683 ± 0.024
27 | GKSHLGGSLTVL | 0.671 ± 0.034
28 | GKSVVAHGLLGG | 0.6702 ± 0.0018
29 | GKSYWYDSGNMM | 0.752 ± 0.078
30 | GLACSRYVLFWK | 0.562 ± 0.023
31 | GLAYGICYRVVL | 0.637 ± 0.011
32 | GLCTSIFSVVFF | 0.679 ± 0.092
33 | GLCVTEFCGFFL | 0.705 ± 0.019
34 | GLDVFFPMDRQA | 0.764 ± 0.08
35 | GLGALPVRVWEG | 0.731 ± 0.034
36 | GLGGPYNSHMFT | 0.991 ± 0.013
37 | GLGGYVIKYIMI | 0.572 ± 0.02
38 | GLGLAFRGSFVL | 0.69 ± 0.056
39 | GLGREVAIMNTW | 0.669 ± 0.058
40 | GLGWGGRGMRVV | 0.695 ± 0.026
41 | GLMGWGLFCGFG | 0.7759 ± 0.0043
42 | GLPRAANMKGSE | 0.652 ± 0.011
43 | GLREGRRRSNDQ | 0.653 ± 0.12
44 | GLRFIAMNIQML | 0.658 ± 0.026
45 | GLRIRFSNSYVG | 0.688 ± 0.057
46 | GLRLCLSMWLRD | 0.633 ± 0.054
47 | GLRTPHASVPPQ | 0.66 ± 0.023
48 | GLSDLTFFKRLF | 0.659 ± 0.036
49 | GLSIVCRHYEES | 0.685 ± 0.022
50 | GLSLLVDLNVWF | 0.569 ± 0.034

Row | Sequence | protein stability index
51 | GLSSNVTSSTLS | 0.685 ± 0.015
52 | GLTSRIAAGRQR | 0.696 ± 0.022
53 | GLTWLVLGFPGS | 0.757 ± 0.052
54 | GLVGRGGAVGEW | 0.68596 ± 0.00038
55 | GLVSGGFYFGLL | 0.681 ± 0.054
56 | GLVVCGGQVVEG | 0.704 ± 0.042
57 | GLVWGGCGTVGG | 0.768 ± 0.17
58 | GLVWGGGGTVGG | 0.73 ± 0.12
59 | GLVWRSRDDQLS | 0.764 ± 0.07
60 | GLYSGGLGAGVG | 0.658 ± 0.092
61 | GMGTWSSNRREC | 0.872 ± 0.18
62 | GMLLCAGGISKG | 0.584 ± 0.011
63 | GMVFGLAWCGCL | 0.619 ± 0.046
64 | GNHNGKIILDNR | 0.679 ± 0.023
65 | GNNREGYRSAQA | 0.599 ± 0.054
66 | GNVLIRFSCSDS | 0.754 ± 0.05
67 | GNWRGLRLMSAP | 0.7603 ± 0.0062
68 | GPAGGGRLECGV | 0.7157 ± 0.0069
69 | GPCTTFVVLLPE | 0.778 ± 0.14
70 | GPFGCLRSLIRG | 0.642 ± 0.097
71 | GPGAGRRKSAER | 0.61607 ± 0.00056
72 | GPGGVGGTSGGK | 0.69 ± 0.062
73 | GPGVGYGRWRGG | 0.667 ± 0.094
74 | GPHGNPGLAPLA | 0.7282 ± 0.0021
75 | GPLRPTPAPNRT | 0.644 ± 0.0079

Row | Sequence | protein stability index
76 | GPPFAPASPVPL | 0.761 ± 0.038
77 | GPPPPPPFPPLP | 0.708 ± 0.0076
78 | GPRQGVLEAASS | 0.636 ± 0.025
79 | GPSIYGFEESFS | 0.691 ± 0.0093
80 | GPSPPSPSPPPL | 0.622 ± 0.0084
81 | GPSRTPRHPSPP | 0.701 ± 0.053
82 | GPSWYGKNSLHK | 0.686 ± 0.051
83 | GPVTDWPLLLFK | 0.5901 ± 0.0015
84 | GQDNSEVLGSVQ | 0.668 ± 0.12
85 | GQHAAVNASVVR | 0.665 ± 0.013
86 | GQIACSECGGGG | 0.679 ± 0.027
87 | GQKRKGTRSKVP | 0.696 ± 0.026
88 | GQSGFGYVGSMK | 0.669 ± 0.049
89 | GQSLGLPGRWYI | 0.775 ± 0.06
90 | GQTMDLRKCTGP | 0.6436 ± 0.0037
91 | GQVGDRVVSVGL | 0.694 ± 0.028
92 | GQWCVAAALIER | 0.699 ± 0.1
93 | GQWGGATLGLVG | 0.777 ± 0.021
94 | GRAGLRIESSKY | 0.692 ± 0.024
95 | GRAVCRALVEAR | 0.552 ± 0.031
96 | GRCIPSFVLPRY | 0.693 ± 0.029
97 | GRCSRGVEGVSG | 0.675 ± 0.034
98 | GRCWVMCSEGEK | 0.64 ± 0.057
99 | GREGGEQRKEGK | 0.692 ± 0.029
100 | GREGTEIGKWRE | 0.74 ± 0.12

Row | Sequence | protein stability index
101 | GRESGNPGEPTC | 0.678 ± 0.012
102 | GRGGGVGLVVGG | 0.683 ± 0.019
103 | GRGGLGWGEWDR | 0.699 ± 0.03
104 | GRGSCVRISSEG | 0.706 ± 0.028
105 | GRKQMKINDWNI | 0.636 ± 0.077
106 | GRKWRTSCQCVS | 0.586 ± 0.026
107 | GRLFGVVSLCLL | 0.647 ± 0.035
108 | GRPRSSAVARSA | 0.769 ± 0.036
109 | GRQILMLGYMVA | 0.548 ± 0.012
110 | GRQRGGRENEGE | 0.673 ± 0.064
111 | GRRFIPFSSFIR | 0.79 ± 0.096
112 | GRRGPGRARRWG | 0.658 ± 0.037
113 | GRRKGGRKAREC | 0.588 ± 0.017
114 | GRRVAWGAQGLG | 0.602 ± 0.046
115 | GRTPGNALKRND | 0.632 ± 0.03
116 | GRVAPNANAVKF | 0.607 ± 0.07
117 | GRVEDAFSGGGI | 0.643 ± 0.089
118 | GRVRYRGSRFLG | 0.656 ± 0.013
119 | GRVSSTRKVGAI | 0.678 ± 0.022
120 | GRWGGRLSWAPG | 0.628 ± 0.03
121 | GRWRCVYRGCGG | 0.646 ± 0.076
122 | GRYAGFESRFGA | 0.666 ± 0.018
123 | GRYCDKRLGIVG | 0.699 ± 0.011
124 | GRYLRRDLVGVF | 0.606 ± 0.051
125 | GRYRRRLPLCRG | 0.663 ± 0.055

Row | Sequence | protein stability index
126 | GRYSGSFWSFWS | 0.719 ± 0.023
127 | GSARLPLWSLPP | 0.793 ± 0.0082
128 | GSAVMLGVSVRV | 0.581 ± 0.043
129 | GSCTPLPSIDFD | 0.648 ± 0.052
130 | GSEAGEPRAGRA | 0.675 ± 0.015
131 | GSGGVGVTSGGK | 0.682 ± 0.056
132 | GSGLVTRTSLDY | 0.726 ± 0.045
133 | GSGQPDPRDAIG | 0.677 ± 0.057
134 | GSGTRNLLFIKS | 0.6708 ± 0.001
135 | GSGWRSRRAPGP | 0.747 ± 0.047
136 | GSIWVVGWGQGV | 0.711 ± 0.032
137 | GSKVGGVGWRSG | 0.726 ± 0.0095
138 | GSLGWRGLVRFF | 0.611 ± 0.013
139 | GSLHGTSAPPRF | 0.731 ± 0.15
140 | GSLPPCPSHAPF | 0.698 ± 0.061
141 | GSMVRSDSFLRP | 0.66 ± 0.019
142 | GSRRSGITSYAN | 0.687 ± 0.011
143 | GSRVRGVMWSFL | 0.771 ± 0.067
144 | GSSCRFGDNTVG | 0.738 ± 0.046
145 | GSSDTYLLSLVD | 0.733 ± 0.052
146 | GSSMLFIEQEVE | 0.683 ± 0.028
147 | GSSPIDGLEVYG | 0.654 ± 0.041
148 | GSSPRVFPPRFC | 0.725 ± 0.033
149 | GSTLWGRAWGAR | 0.724 ± 0.02
150 | GSVQHRRRDRCD | 0.676 ± 0.038

Row | Sequence | protein stability index
151 | GSVRGFGGGGEE | 0.652 ± 0.049
152 | GSWGWHVRGSGV | 0.598 ± 0.037
153 | GSYDLMGFQFFI | 0.632 ± 0.029
154 | GTCQALARRTGD | 0.686 ± 0.061
155 | GTCWAGAMGVVG | 0.714 ± 0.043
156 | GTCWGGAMGVVG | 0.728 ± 0.042
157 | GTDVFTQAVRNC | 0.641 ± 0.019
158 | GTFCLFTPCVWM | 0.716 ± 0.044
159 | GTKDRSNMIRKS | 0.6702 ± 0.0044
160 | GTKGGPSGLEPP | 0.7125 ± 0.0018
161 | GTLLRINLMTIQ | 0.663 ± 0.02
162 | GTLYLRVTSKEK | 0.717 ± 0.044
163 | GTPWHLRPRCPF | 0.749 ± 0.013
164 | GTSCPCGGALRP | 0.776 ± 0.035
165 | GTSSTPPPPAPP | 0.661 ± 0.016
166 | GTWGGGGWSCES | 0.725 ± 0.076
167 | GVAGGGTVVGAQ | 0.693 ± 0.017
168 | GVARGFGVVVPA | 0.6427 ± 0.0044
169 | GVAWGAGVGMMW | 0.732 ± 0.025
170 | GVCWVTAGLWAI | 0.6098 ± 0.0021
171 | GVGAPGARGVWG | 0.748 ± 0.048
172 | GVGAWGGMCGVV | 0.724 ± 0.0082
173 | GVGCGGGGSSCA | 0.703 ± 0.11
174 | GVGGCRVRGLGA | 0.691 ± 0.017
175 | GVGGENRRNGTV | 0.721 ± 0.11

Row | Sequence | protein stability index
176 | GVGGGVMGVGRV | 0.665 ± 0.01
177 | GVGQEGVGGRAV | 0.707 ± 0.03
178 | GVGWGSSWVGYG | 0.898 ± 0.092
179 | GVIFRRFDVGLS | 0.682 ± 0.053
180 | GVIGFNSLYGIA | 0.632 ± 0.027
181 | GVLGCRWWGSMG | 0.657 ± 0.015
182 | GVLPVDKFLKNW | 0.735 ± 0.098
183 | GVLRDRAFLTCA | 0.618 ± 0.028
184 | GVLVERLCGRGF | 0.702 ± 0.049
185 | GVPLSGLVCPRP | 0.7103 ± 0.001
186 | GVRGGRGQGWYR | 0.6373 ± 0.0018
187 | GVRNISELSRLF | 0.644 ± 0.019
188 | GVRSGAGGQVVG | 0.701 ± 0.038
189 | GVSIGVLTGAWR | 0.646 ± 0.0015
190 | GVVGLCLLGLGR | 0.701 ± 0.024
191 | GVVRSAPEAASL | 0.573 ± 0.03
192 | GVVVKDPGNAFL | 0.704 ± 0.029
193 | GVVVRSCLMGFT | 0.619 ± 0.022
194 | GVWGGRGQGWYR | 0.674 ± 0.0096
195 | GVWLRTARRISK | 0.688 ± 0.037
196 | GVWTPGPIWGRG | 0.7134 ± 0.00084

From the supplement of paper PMC10724198
